This is an account of results in US11278600B2, “Human alpha-galactosidase variants” (Codexis, Inc., priority 2014, dated 2022).

The chains are these.
B1: 580 (protein)
chain: LDNGLARTPTMGWLHWERFMCNLDCQEEPDSCISEKLFMEMAERMVSEGWKDAGYEYLCIDDCWMAPQRDSEGRLQADPQRFPHGIRQLANHVHSKGLKLGIYADVGNKTCAGFPGSFGYYDIDAQTFADWGVDLLKFDGCYCDSLENLADGYKHMSLALNRTGRSIVYSCEWPLYMWPFQKPNYTEIRQYCNHWRNFADIDDSWASIKSILDWTSRNQERIVDVAGPGGWNDPDMLVIGNFGLSRDQQVTQMALWAIMAAPLFMSNDLRHISPQAKALLQDKDVIAINQDPLGKQGYQLRKGDNFEVWERPLSGDAWAVAIINRQEIGGPRSYTIPVASLGKGVACNPACFITQLLPVKRQLGFYNWTSRLKSHINPTGTVLLQLENTMQMSLKDLL
modifications: Synthetic Polypeptide sequence of Variant No. 580 of mature Human GLA
B2: 520 (protein)
chain: B1 chain with A77S, R246W
modifications: Synthetic Polypeptide sequence of Variant No. 520 of mature Human GLA
B3: 587 (protein)
chain: B1 chain with S210R, R246W
modifications: Synthetic Polypeptide sequence of Variant No. 587 of mature Human GLA
B4: 583 (protein)
chain: B1 chain with S210A, R246W, A350T
modifications: Synthetic Polypeptide sequence of Variant No. 583 of mature Human GLA
B5: 582 (protein)
chain: B1 chain with S210A, R246W
modifications: Synthetic Polypeptide sequence of Variant No. 582 of mature Human GLA
B6: 590 (protein)
chain: B1 chain with P179M, R246W
modifications: Synthetic Polypeptide sequence of Variant No. 590 of mature Human GLA
B7: 591 (protein)
chain: B1 chain with R189K, R246W
modifications: Synthetic Polypeptide sequence of Variant No. 591 of mature Human GLA
B8: 581 (protein)
chain: B1 chain with R246S
modifications: Synthetic Polypeptide sequence of Variant No. 581 of mature Human GLA
B9: 593 (protein)
chain: B1 chain with S95A, R246W
modifications: Synthetic Polypeptide sequence of Variant No. 593 of mature Human GLA
B10: 585 (protein)
chain: B1 chain with S210K, R246W
modifications: Synthetic Polypeptide sequence of Variant No. 585 of mature Human GLA
B11: 592 (protein)
chain: B1 chain with R189V, R246W
modifications: Synthetic Polypeptide sequence of Variant No. 592 of mature Human GLA
B12: 584 (protein)
chain: B1 chain with S210E, R246W
modifications: Synthetic Polypeptide sequence of Variant No. 584 of mature Human GLA
B13: 586 (protein)
chain: B1 chain with S210N, R246W
modifications: Synthetic Polypeptide sequence of Variant No. 586 of mature Human GLA
B14: 588 (protein)
chain: B1 chain with K96A, R246W
modifications: Synthetic Polypeptide sequence of Variant No. 588 of mature Human GLA
B15: 589 (protein)
chain: B1 chain with K96W, R246W
modifications: Synthetic Polypeptide sequence of Variant No. 589 of mature Human GLA

Numbering of substitutions follows the chain as printed.

A short description of the first data set: HTP-analysis of supernatants pretreated with acid (MUGal hydrolysis). Format: biochemical. The note with it: activity of the variant/activity of Rd3BB (SEQ ID NO: 13); challenge at pH 3.7. In short, it runs like this: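 MUGal hydrolysis was tracked by fluorescence (Ex 355 nm, Em 448 nm) after a 30-180 min reaction at 37° C. in pH 4.8 McIlvaine/citrate buffer, stopped with 1 M sodium carbonate. Beforehand, yeast (INVSc1) culture supernatants carrying GLA variants were held 1-3 h at 37° C. in acidic McIlvaine buffer, pH 3.3-4.3.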
In the case of B1, the “Relative Activity of GLA Variants After Challenge at pH 3.7” value (shortened to “Relative Activity … at pH 3.7”) is recorded as “+++ (+++ = >10 relative activity over Rd3BB (SEQ ID NO: 13))”.
In the case of B2, the “Relative Activity … at pH 3.7” value was “+ (+ = 1.5 to 5 relative activity over Rd3BB (SEQ ID NO: 13))”.
The same measure, in the same setting: for B3 the value was “+ (+ = 1.5 to 5 relative activity over Rd3BB (SEQ ID NO: 13))”.
Still for that read-out and setting: for B4 the value was “+ (+ = 1.5 to 5 relative activity over Rd3BB (SEQ ID NO: 13))”; for B5, “+ (+ = 1.5 to 5 relative activity over Rd3BB (SEQ ID NO: 13))”.
Still for that read-out and setting: for B6 the value was “+ (+ = 1.5 to 5 relative activity over Rd3BB (SEQ ID NO: 13))”; for B7, “+ (+ = 1.5 to 5 relative activity over Rd3BB (SEQ ID NO: 13))”.
As to B8, the “Relative Activity … at pH 3.7” value is on record as “++ (++ = >5 to 10 relative activity over Rd3BB (SEQ ID NO: 13))”.
Same read-out and setting: for B9 the value was “+ (+ = 1.5 to 5 relative activity over Rd3BB (SEQ ID NO: 13))”; for B10, “+ (+ = 1.5 to 5 relative activity over Rd3BB (SEQ ID NO: 13))”.
On to B11, for which the “Relative Activity … at pH 3.7” value is given as “+ (+ = 1.5 to 5 relative activity over Rd3BB (SEQ ID NO: 13))”.
Same read-out and setting: for B12 the value was “+ (+ = 1.5 to 5 relative activity over Rd3BB (SEQ ID NO: 13))”; for B13, “++ (++ = >5 to 10 relative activity over Rd3BB (SEQ ID NO: 13))”; for B14, “+ (+ = 1.5 to 5 relative activity over Rd3BB (SEQ ID NO: 13))”.
Still for that read-out and setting: for B15 the value was “+ (+ = 1.5 to 5 relative activity over Rd3BB (SEQ ID NO: 13))”.

A further data set can be described thus: HTP-analysis of yeast culture supernatants, no challenge (MUGal hydrolysis). Format: biochemical. The note with it: activity of the variant/activity of Rd3BB (SEQ ID NO: 13). Put shortly: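 GLA variants expressed in yeast INVSc1, secreted into SD-Ura broth over 66-84 h at 30° C; clarified supernatants tested without challenge. Supernatant mixed with McIlvaine buffer pH 4.8 and 2 mM MUGal (citrate/KCl, pH 4.6), 37° C for 30-180 min, carbonate-quenched, fluorescence Ex 355/Em 448 nm.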
Take B1: the “Relative Activity of GLA Variants After No Challenge (NC)” value is “+ (+ = 1.5 to 5 relative activity over Rd3BB (SEQ ID NO: 13))”.
With B2, the “Relative Activity of GLA Variants After No Challenge (NC)” value is on record as “+ (+ = 1.5 to 5 relative activity over Rd3BB (SEQ ID NO: 13))”.
Still for that read-out and setting: for B3 the value was “+ (+ = 1.5 to 5 relative activity over Rd3BB (SEQ ID NO: 13))”; for B4, “+ (+ = 1.5 to 5 relative activity over Rd3BB (SEQ ID NO: 13))”; for B5, “+ (+ = 1.5 to 5 relative activity over Rd3BB (SEQ ID NO: 13))”.
Same read-out and setting: then B6, with “+ (+ = 1.5 to 5 relative activity over Rd3BB (SEQ ID NO: 13))”; and B7, with “+ (+ = 1.5 to 5 relative activity over Rd3BB (SEQ ID NO: 13))”.
The same measure, in the same setting: then B8, with “+ (+ = 1.5 to 5 relative activity over Rd3BB (SEQ ID NO: 13))”; and B9, with “+ (+ = 1.5 to 5 relative activity over Rd3BB (SEQ ID NO: 13))”.
In the case of B10, the “Relative Activity of GLA Variants After No Challenge (NC)” value is given as “+ (+ = 1.5 to 5 relative activity over Rd3BB (SEQ ID NO: 13))”.
Still for that read-out and setting: for B11 the value was “+ (+ = 1.5 to 5 relative activity over Rd3BB (SEQ ID NO: 13))”; for B12, “+ (+ = 1.5 to 5 relative activity over Rd3BB (SEQ ID NO: 13))”; for B13, “+ (+ = 1.5 to 5 relative activity over Rd3BB (SEQ ID NO: 13))”.
Turning to B14, the “Relative Activity of GLA Variants After No Challenge (NC)” value is recorded as “+ (+ = 1.5 to 5 relative activity over Rd3BB (SEQ ID NO: 13))”.
Still for that read-out and setting: then B15, with “+ (+ = 1.5 to 5 relative activity over Rd3BB (SEQ ID NO: 13))”.

A further data set can be described thus: HTP-analysis of supernatants pretreated with base (MUGal hydrolysis). Format: biochemical. To be noted: activity of the variant/activity of Rd3BB (SEQ ID NO: 13); challenge at pH 9.7. In short, it runs like this: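 GLA variants were secreted by transformed INVSc1 yeast grown 66-84 h at 30° C. Supernatants were exposed to neutral-to-basic buffers (pH 7.0-9.7) at 37° C for 1-18 h, then assayed with MUGal in acidic citrate/McIlvaine buffer, with fluorescence read after quenching.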
Consider B1, for which the “Relative Activity of GLA Variants After Challenge at pH 9.7” value (“Relative Activity … at pH 9.7” below) is “++ (++ = >5 to 10 relative activity over Rd3BB (SEQ ID NO: 13))”.
The same measure, in the same setting: then B2, with “+ (+ = 1.5 to 5 relative activity over Rd3BB (SEQ ID NO: 13))”.
In the case of B3, the “Relative Activity … at pH 9.7” value was “++ (++ = >5 to 10 relative activity over Rd3BB (SEQ ID NO: 13))”.
Still for that read-out and setting: then B4, with “++ (++ = >5 to 10 relative activity over Rd3BB (SEQ ID NO: 13))”; and B5, with “++ (++ = >5 to 10 relative activity over Rd3BB (SEQ ID NO: 13))”.
On the same count and under the same terms, then B6, with “+ (+ = 1.5 to 5 relative activity over Rd3BB (SEQ ID NO: 13))”; and B7, with “++ (++ = >5 to 10 relative activity over Rd3BB (SEQ ID NO: 13))”; and B8, with “++ (++ = >5 to 10 relative activity over Rd3BB (SEQ ID NO: 13))”.
The same measure, in the same setting: for B9 the value was “++ (++ = >5 to 10 relative activity over Rd3BB (SEQ ID NO: 13))”; for B10, “++ (++ = >5 to 10 relative activity over Rd3BB (SEQ ID NO: 13))”.
For B11, the “Relative Activity … at pH 9.7” value is given as “++ (++ = >5 to 10 relative activity over Rd3BB (SEQ ID NO: 13))”.
On to B12, for which the “Relative Activity … at pH 9.7” value is reported as “++ (++ = >5 to 10 relative activity over Rd3BB (SEQ ID NO: 13))”.
On the same count and under the same terms, for B13 the value was “++ (++ = >5 to 10 relative activity over Rd3BB (SEQ ID NO: 13))”; for B14, “+ (+ = 1.5 to 5 relative activity over Rd3BB (SEQ ID NO: 13))”.
The same measure, in the same setting: for B15 the value was “+ (+ = 1.5 to 5 relative activity over Rd3BB (SEQ ID NO: 13))”.
